Assay results reported in publication PMC11820797, “Rapid Detection of Alpha-Fetoprotein (AFP) with Lateral Flow Aptasensor”.

Biological target: T1, alpha-fetoprotein (AFP) (UniProt P02771 19-609)
T1 sequence: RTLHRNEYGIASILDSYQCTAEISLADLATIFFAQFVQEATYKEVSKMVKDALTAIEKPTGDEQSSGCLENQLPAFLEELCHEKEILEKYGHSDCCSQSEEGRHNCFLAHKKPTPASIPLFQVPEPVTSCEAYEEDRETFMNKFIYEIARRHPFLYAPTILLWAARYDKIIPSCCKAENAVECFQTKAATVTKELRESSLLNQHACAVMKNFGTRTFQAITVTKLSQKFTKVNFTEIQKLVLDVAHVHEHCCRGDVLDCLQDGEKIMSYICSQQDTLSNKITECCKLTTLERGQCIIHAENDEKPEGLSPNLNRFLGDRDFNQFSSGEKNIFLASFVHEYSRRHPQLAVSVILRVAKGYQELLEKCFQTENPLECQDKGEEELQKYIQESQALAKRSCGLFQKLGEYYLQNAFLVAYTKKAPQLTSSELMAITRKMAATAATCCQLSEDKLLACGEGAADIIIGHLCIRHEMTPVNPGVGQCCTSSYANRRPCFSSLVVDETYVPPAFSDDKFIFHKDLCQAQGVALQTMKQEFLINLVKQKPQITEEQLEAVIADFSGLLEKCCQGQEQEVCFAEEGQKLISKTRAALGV
Experiment: lateral flow aptamer sandwich; AP-273 as both AuNP probe and capture probe; 100 ng/mL AFP detected; LOD 10 ng/mL; Lateral flow strip, 50 uL running buffer (composition not in the material); pads pretreated with 0.05 M Tris-HCl, 2.5% Tween-20, 0.25% Triton X-100; assay pH and temperature not given
Details: label: AuNP (Det-Apt); biotin-streptavidin (Cap-Apt)

B1: AP-273 (Det-Apt / Cap-Apt) (ssDNA)
DNA: GTGACGCTCCTAACGCTGACTCAGGTGCAGTTCTCGACTCGGTCTTGATGTGGGTCCTGTCCGTCCGAACCAATC
modifications: thiol (Det-Apt) or biotin (Cap-Apt), printed at 5' end
  binding result: binds
